Experimental data taken from the Human Domainome abundance scans (Beltran et al. 2025).

B1: Nucleosome-remodeling factor subunit BPTF, residues 2862 to 2918; numbered along this chain, Q12830 (parent)
chain: TKKDTKLYCICKTPYDESKFYIGCDRCQNWYHGRCVGILQSEAELIDEYVCPQCQST
B2: Segment polarity protein dishevelled homolog DVL-3, residues 2 to 81; numbered along this chain, Q92997 (parent)
chain: GETKIIYHLDGQETPYLVKLPLPAERVTLADFKGVLQRPSYKFFFKSMDDDFGVVKEEISDDNAKLPCFNGRVVSWLVSA

Variants of: B1
Experiment: abundance fitness (aPCA) (normalised: wild type 0, dead -1); higher = more abundant; growth selection in yeast, the domain comes from the species named
Conditions: Homo sapiens

Abundance fitness of substitutions, site by site:
T57: I -0.115; H -0.172; G -0.16; A 0.024; L -0.569; R -0.106; M -0.509; P -0.044; Q -0.469; V -0.052; Y -0.33; E -0.022; S 0.068; C -0.003
S56: K -0.03; R 0.074; W -0.554; N 0.269; Y -0.191; G -0.195; F -0.063
Q55: P -0.101; I -0.141; R -0.142; H -0.167; N -0.09; M -0.188; W -0.245; T -0.196; E 0.01; F -0.375; Y -0.474; V -0.18; K 0.021; L -0.157; G -0.187

Variants of: B2
Experiment: as above
Conditions: Homo sapiens

Abundance fitness, by site and new letter:
Q12: N 0.269; P -0.638; A -0.129; V -0.012; E 0.219; K -0.088; C 0.126; Y -0.019; D 0.386; S 0.263; H 0.134; L -0.305; F -0.227; R -0.053; I 0.083; T -0.106; W -0.612; G 0.129; M 0.063
T14: A -0.123; G -0.296; Y -0.955; N -0.049; H 0.281; S -0.104; R 0.096; Q 0.114; W -0.529; F -0.092; K 0.286; V -0.128; D 0.038; E 0.215; P -0.129; C -0.112; L -0.328; M -0.265; I 0.024
V18: G -0.612; T -0.33; L -0.054; F -0.707; C -0.558; D -0.694; I -0.025; M -0.247; Q -0.872; S -0.906; Y -0.589; E -0.68; W -0.643; N -0.329; H -0.298; K -0.601; A -0.264; R -0.717
T3: H -0.831; A -0.684; F -0.452; C -0.59; D -0.448; K -0.635; N -0.822; P -0.509; E -0.638; I -0.962; R -0.665; G -0.853; S -0.633; M -0.683; Q -1.05; L -0.727
Y16: F -0.082; Q 0.16; C 0.041; K 0.074; M 0.096; A -0.593; P -0.869; I 0.216; L 0.025; E -0.167; H 0.23; N -0.157; V -0.115; W -0.572; S -0.213; T -0.15; D -0.708
E13: C -0.251; R -0.092; N -0.222; A -0.183; M -0.047; Y -0.526; F -0.549; Q -0.034; D -0.129; K 0.064; I -0.184; P -0.011; H -0.473; G -0.348; L -0.42; S -0.107; T -0.129; W -0.351; V -0.426
D10: S -0.68; C -0.709; V -0.726; A -0.513; R -0.696; G -0.709; I -0.831; F -0.677; P 0.002; K -0.791; L -0.848; W -0.866; H -0.568; M -0.822; E -0.016; T -0.471; N -0.507
G1: L -0.132; R -0.179; C -0.13; A -0.084; W -0.222; D -0.205
